Measured values taken from PMC3843637.
Values joined by “and” are separate entries in the source; they are usually repeats but may differ in a detail not shown here. Equal values may be shown once.

How the values were obtained:
[1] = molecular target: S3LMH2EEE/S4LMH2 heterotrimer (human) (UniProt P84022); test: ITC
[2] = molecular target: phosphomimetic Smad3 fragment S3LMH2EEE (linker and MH2 domain, amino acids 167 to 425) (human) (UniProt P84022); test: ITC

- Kd [1]: 1.5 µM and 1.37 µM
- Kd [2]: 1.17 µM and 1.35 µM
B1: MAN1 fragment from amino acids 755 to 911 (MAN1Luhm) (domain or fragment)
chain: DKILVIPSKVWQGQAFHLDRRNSPPNSLTPCLKIRNMFDPVMEIGDQWHLAIQEAILEKCSDNDGIVHIAVDKNSREGCVYVKCLSPEYAGKAFKALHGSWFDGKLVTVKYLRLDRYHHRFPQALTSNTPLKPSNKHMNSMSHLRLRTGLTNSQGSS
